Data from US20190300590A1 (PROTAGONIST THERAPEUTICS, published 2019).
Bridges are numbered along the chain shown (N, C = ends). [ ]: non-standard residue; d: D form. 2Nal = N[C@@H](Cc1ccc2ccccc2c1)C(=O)O; AEF = NCCOc1ccc(C[C@H](N)C(=O)O)cc1; Pen = CC(C)(S)[C@H](N)C(=O)O; Thp = NC1(C(=O)O)CCOCC1; Abu = CC[C@H](N)C(=O)O; AEA = NCCOCC(=O)O; βAla = NCCC(=O)O

Columns and labels:
Rat IL-23R_huFC [1] = target: Rat IL-23R_huFC (rat); test: rat ELISA vs IL-23
Rat IL-23R_huFC [2] = target: Rat IL-23R_huFC (rat); test: rat ELISA vs IL-23; remark: listed apart in the source
IL23R_huFC [3] = target: T1, IL23R_huFC (human, UniProt Q5VWK5 24-353); test: human ELISA vs IL-23
T1 sequence (looked up): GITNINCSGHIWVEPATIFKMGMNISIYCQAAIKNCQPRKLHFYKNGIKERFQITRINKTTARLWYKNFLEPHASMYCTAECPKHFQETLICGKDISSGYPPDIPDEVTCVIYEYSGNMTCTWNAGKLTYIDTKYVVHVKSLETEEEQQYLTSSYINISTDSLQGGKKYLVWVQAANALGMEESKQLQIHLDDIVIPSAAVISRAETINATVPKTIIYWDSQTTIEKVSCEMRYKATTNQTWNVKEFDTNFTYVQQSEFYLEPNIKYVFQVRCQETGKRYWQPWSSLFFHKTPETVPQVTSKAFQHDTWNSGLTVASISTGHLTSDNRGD

IL23R_huFC [4] = target: T1, IL23R_huFC; test: human ELISA vs IL-23; remark: listed apart in the source
[5] = target: IL-12Rb1_huFC/IL-23R_huFC (human, UniProt P42701 24-540; Q5VWK5 24-353); test: SPR, mixed IL-12Rb1_huFC/IL-23R_huFC surface, IL-23 as analyte
[6] = target: recombinant human IL-12Rβ1_huFC (RnD) (human, UniProt P42701 24-540); test: SPR, IL-12Rb1_huFC captured on anti-human IgG, IL-23 as analyte
Rat IL-23R_huFC [7] = target: Rat IL-23R_huFC (rat); test: IL-23/IL-23R competitive binding ELISA, rat
Cyno IL-23R_huFC = target: T2, Cyno IL-23R_huFC (cyno, UniProt G7NWY5 24-353); test: IL-23/IL-23R competitive binding ELISA, cyno
T2 sequence: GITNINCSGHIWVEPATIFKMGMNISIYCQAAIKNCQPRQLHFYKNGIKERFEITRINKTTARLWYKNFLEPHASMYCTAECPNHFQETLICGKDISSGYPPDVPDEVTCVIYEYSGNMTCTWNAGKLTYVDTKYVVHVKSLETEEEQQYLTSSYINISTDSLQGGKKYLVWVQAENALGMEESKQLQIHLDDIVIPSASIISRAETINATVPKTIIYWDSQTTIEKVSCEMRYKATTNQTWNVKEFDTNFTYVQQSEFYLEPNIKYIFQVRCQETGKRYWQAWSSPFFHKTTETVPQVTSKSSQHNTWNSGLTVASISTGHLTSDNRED

[8] = target: T3, Recombinant human IL-23R_huFC (RnD) (human, UniProt Q5VWK5 24-353); test: IL-23/IL-23R competitive binding ELISA, human
T3 sequence (looked up): T1 sequence (looked up)

IL23R_huFC [9] = target: T4, IL23R_huFC (human, UniProt Q5VWK5 24-353); test: IL23-IL23R competitive ELISA, IC50 grade
T4 sequence (looked up): T1 sequence (looked up)

Rat IL-23R_huFC [10] = target: T5, Rat IL-23R_huFC (rat; human, UniProt F1LX96 39-369); test: rat IL-23R competitive ELISA
T5 sequence: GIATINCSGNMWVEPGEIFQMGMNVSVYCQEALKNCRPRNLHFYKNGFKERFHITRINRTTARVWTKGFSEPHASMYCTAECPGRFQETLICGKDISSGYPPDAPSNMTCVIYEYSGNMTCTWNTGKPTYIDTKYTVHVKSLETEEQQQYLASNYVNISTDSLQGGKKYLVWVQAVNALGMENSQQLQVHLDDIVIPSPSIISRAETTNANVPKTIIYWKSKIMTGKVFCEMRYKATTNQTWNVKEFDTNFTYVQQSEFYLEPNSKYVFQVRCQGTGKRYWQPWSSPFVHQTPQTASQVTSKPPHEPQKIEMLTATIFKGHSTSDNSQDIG

With XADWVCYWHTFGXK (as bracketed in name; cyclized via Cys and Pen) [Ac-[(D)Pen]-ADWVCYWHTFG-[AEA]-[(D)-Lys]-NH2] the IC50 (Rat IL-23R_huFC [1]) was 1 to 10 µM.

Work on CADWVXYWHTFGXK (as bracketed in name; cyclized via Cys and Pen) [Ac-CADWV-[(D)Pen]-YWHTFG-[AEA]-[(D)-Lys]-NH2] yielded an IC50 (Rat IL-23R_huFC [1]) of 1 to 10 µM.

Ac-[Pen]RTWQCYWRKFG[AEA][dK]-NH2 (disulfide 1-6 (inferred)) [Ac-[Pen]-RTWQCYWRKFG-[AEA]-[(D)-Lys]-NH2] gave an IC50 (Rat IL-23R_huFC [2]) of 0.1 to 1 µM.

CQTWQXYWLENG (as bracketed in name; cyclized via Cys and Pen) [Ac-CQTWQ-[Pen]-YW-[α-MeLeu]-ENG-NH2] showed an IC50 (Rat IL-23R_huFC [2]) of 0.1 to 1 µM and an IC50 (IL23R_huFC [3]) of 0.1 to 1 µM.

B1: Ac-CQTWQ-[Pen]-YW-[(D)Asn]-ENG-NH2 (peptide)
peptide: Ac-CQTWQ[Pen]YW[dN]ENG-NH2
modifications: disulfide 1-6
SMILES: CC(=O)N[C@H]1CSSC(C)(C)[C@@H](C(=O)N[C@@H](Cc2ccc(O)cc2)C(=O)N[C@@H](Cc2c[nH]c3ccccc23)C(=O)N[C@H](CC(N)=O)C(=O)N[C@@H](CCC(=O)O)C(=O)N[C@@H](CC(N)=O)C(=O)NCC(N)=O)NC(=O)[C@H](CCC(N)=O)NC(=O)[C@H](Cc2c[nH]c3ccccc23)NC(=O)[C@H]([C@@H](C)O)NC(=O)[C@H](CCC(N)=O)NC1=O
For B1, the IC50 (IL23R_huFC [4]) was 1 to 10 µM.

B2: Recombinant human IL-23 (Humanzyme) (ligand)
chain 1: RAVPGGSSPAWTQCQQLSQKLCTLAWSAHPLVGHMDLREEGDEETTNDVPHIQCGDGCDPQGLRDNSQFCLQRIHQGLIFYEKLLGSDIFTGEPSLLPDSPVGQLHASLLGLSQLLQPEGHHWETQQIPSLSPSQPWQRLLLRFKILRSLQAFVAVAARVFAHGAATLSP
chain 2: IWELKKDVYVVELDWYPDAPGEMVVLTCDTPEEDGITWTLDQSSEVLGSGKTLTIQVKEFGDAGQYTCHKGGEVLSHSLLLLHKKEDGIWSTDILKDQKEPKNKTFLRCEAKNYSGRFTCWWLTTISTDLTFSVKSSRGSSDPQGVTCGAATLSAERVRGDNKEYEYSVECQEDSACPAAEESLPIEVMVDAVHKLKYENYTSSFFIRDIIKPDPPKNLQLKPLKNSRQVEVSWEYPDTWSTPHSYFSLTFCVQVQGKSKREKKDRVFTDKTSATVICRKNASISVRAQDRYYSSSWSEWASVPCS
B2 was tested, and the Kd [5] was 0.00018 µM, the koff [5] was 0.000115 s⁻¹ and the kon [5] was 631000 M⁻¹ s⁻¹. It also gave a Kd [6] of 0.00087 µM, a koff [6] of 0.000438 s⁻¹ and a kon [6] of 501000 M⁻¹ s⁻¹.

B3: Peptide 993 (peptide)
peptide: RXQTWQCFXXENN
modifications: Ac-[(D)Arg]-Cyclo-[[Abu]-QTWQC]-[Phe[4-(2-aminoethoxy)]]-[2-Nal]-[4-amino-4-carboxy-tetrahydropyran]-ENN-NH2; cyclized by Abu-Cys thioether
For B3, the IC50 (Rat IL-23R_huFC [7]) was 0.002 µM, the IC50 (Cyno IL-23R_huFC) was 0.002 µM and the IC50 [8] was 0.002 µM.

Work on Ac-[Abu]QTWQC[AEF][2Nal][Thp]ENN-NH2 (thioether 1-6) [Peptide 980] yielded an IC50 (Rat IL-23R_huFC [7]) of 0.003 µM and an IC50 (Cyno IL-23R_huFC) of 0.0013 µM.

In the case of H-FPTWEWYWCNRD-NH2 (also: oxidized dimer via intermolecular Cys9-Cys9 disulfide) [(Hy-FPTWEWYWCNRD-NH2)2, oxidized dimer through the cysteine], the IC50 (IL23R_huFC [9]) is reported as 1 to 10 µM.

With Ac-CQTWQCYW[βAla]VFG[AEA][dK]-NH2 (disulfide 1-6 (inferred)) [Ac-CQTWQCYW-[βAla]-VFG-[AEA]-[(D)Lys]-NH2] the IC50 (Rat IL-23R_huFC [10]) was 2.21 µM.

CQTWQCYWRXNGXK (Ac-; [Aib]; [AEA]; [(D)Lys]; -NH2) [Ac-CQTWQCYWR-[Aib]-NG-[AEA]-[(D)Lys]-NH2] gave an IC50 (Rat IL-23R_huFC [10]) of 1.06 µM.
